Results published in the DeepSol protein solubility set.

Assay: soluble on expression in E. coli; label from the status in PepcDB or PDB records

Sequence | soluble on expression in E. coli
MGSDKIHHHHHHVTALPYLIEPLVLPAAVDSPDAGAFREFGELSDALVLETWGNADRSSPQEARLQYWRDNPYTQLRLFFVWLDGRMVARSWIRFGIQENVHTAVLHVNVLAEFSGRGIGRALLRHAEELAAARGCTTLQTFTEHPADFDAGGAGVLKPETGTGGVPAAARGVRFALAAGYRLEQVERFSALELPLAGDTLAALETEALEKSGEQYELLHWTDRCPDGLAQQLAVLMSRMSTDTPVGALNYDEESWDVARVRHVEDTWQKAGLASLVAGARHRATGELAAYSVLQVSDAKPWLANQDDTLVASHHRGHRLGMLVKILNIRRLLAGYPGVERIITFNAAENDHMLAINVALGFHPEGYDGEWQKAL | not soluble
RMLTDRRVHDADFLTDELGLTSLGLVNHQHHHSMKKQALNLNGGYHTHNDRTSSQAMKRV | not soluble
MSLSKTYHFIGIKGSGMSALALMLHQMGHKVQGSDVEKYYFTQRGLEQAGITILPFDEKNLDGDMEIIAGNAFRPDNNVEIAYADQNGISYKRYHEFLGSFMRDFVSMGVAGAHGKTSTTGMLSHVLSHITDTSFLIGDGTGRGSANAKYFVFESDEYERHFMPYHPEYSIITNIDFDHPDYFTSLEDVFNAFNDYAKQITKGLFVYGEDAELRKITSDAPIYYYGFEAEGNDFVASDLLRSTTGSTFTVHFRGQNLGQFHIPTFGRHNIMNATAVIGLLYTAGFDLNLVREHLKTFAGVKRRFTEKIVNDTVIIDDFAHHPTEIIATLDAARQKYPSKEIVAVFQPHTFTRTIALLDDFAHALNQADAVYLAQIYGSAREVDHGDVKVEDLANKINKKHQVITVENVSPLLDHDNAVYVFMGAGDIQTYEYSFERLLSNLTSNVQEGHHHHHH | soluble
MSLSTLLISAPHLAFKIIATGVSLPPDRVESSTLDRKLNKPVGYVEQRSGVRHRYHATADANQAELAAAALHDALERHGINPSSIDLLISASAIAYQALPCTAVHILKIAGLAPRIAGFDINSSCVSFISALQVAAGLLNAGTYQRIAIVSADLASRGIDWNDEESSLIFGDGAACAIVERGDGRSGILASLVEMYPTGSELCEIRAGGTRCNPRSGMDNDDFLFHMQGKRLFRQASGIIEDYFQRLLEKSGLTLADIATVIPHQASHLSLAHMRKRLHVPTDVLVDIYRDHGNQVAASIPTALHAAVMSGRFSPGKPVMLIGTAAGLTLAGMVLLEGHHHHHH | not soluble
MEKTRANSHLRSQPIDWTIEEVIQYIESNDNSLAVHGDLFRKHEIDGKALLRLNSEMMMKYMGLKLGPALKICNLVNKVNGRDHHHHHH | soluble
SLKPFQDKNTFFYKSPSYICDSEISVACKKGKKVDFPNQDDFTIIQTNDWILIMVFDGHGPSGHDISNFVHVVLPLLFSYNIEKIYENPVRTMKTLFYMINCYLVNYSYCINNNINPININFIDYNLSGTTCTIILYNFITKKIYSAHTGDSRAVMGKQNPQTNKFSAYNITEDHKPSLKLEKDRILAFGGEVKKLHGDVAYRVFVKDEMYPGLAMSRAIGDITSSFIGVTCEPTIKILDKLEEDKFIIVATDGIWEFISSEECVQMVSKKKKKKVHIAMEEIIKESWRRWARIDTVDDMTLVILYF | not soluble
MPPLECDVLVIGSGASGLAAAVTAAHHGLTVVVAEKASQLGGTSAWSGGWLWIPRNPLAIAEGIVEADDAPERYLRAQTHTRELDPRQRAFLRHGPEMVAFFEQHTAVQFQCGSRMPDMREGDGSARGGRSLCALPYDGRRLGPWLHKLRPPLDIVSLAGMGIAGGADMAAFFNATRSPKAALHVGKRLLRHGRDLLLHRRGLHLVNGNALVARLLRSALDRGVTLLTEKAASRLLLCEERVNGALFADGQAIYARRGVVLACGGFPHDRQRISQLMPHAPDGDQHYSAAPRENSGDGLRLGEQAGGRVSAAGAHGGAWAPVSQVPRRNGHFGHFPHLIDRAKPGFIAVRRDGRRFVNEADCYHDFMNALFAATPQAEQPEAWLICDHAAQRRYGIGWAKPFPFPTRFYQRSGYLHSGATLAQLAQRCGIDAEQLQRTVEGFNHHAAQGEDPTFLRGASAYNRAQGDPQQVPNPSLRPLLKGPFHAVKLLPGSLGTFAGLDTDASARVLDHAGQPIPGLFAVGNDMHSVMGGYYPSGGITLGPGMTFGYLAGRALSAGCADHLEHHHHHH | not soluble
MALADISGYLDVLDSVRGFSYLENAREVLRSGEARCLGNPRSEPEYVKALYVIGASRIPVGDGCSHTLEELGVFDISVPGEMVFPSPLDFFERGKPTPLVRSRLQLPNGVRVWLKLEWYNPFSLSVKDRPAVEIISRLSRRVEKGSLVADATSSNFGVALSAVARLYGYRARVYLPGAAEEFGKLLPRLLGAQVIVDPEAPSTVHLLPRVMKDSKNEGFVHVNQFYNDANFEAHMRGTAREIFVQSRRGGLALRGVAGSLGTSGHMSAAAFYLQSVDPSIRAVLVQPAQGDSIPGIRRVETGMLWINMLDISYTLAEVTLEEAMEAVVEVARSDGLVIGPSGGAAVKALAKKAAEGDLEPGDYVVVVPDTGFKYLSLVQNALEGAGDSV | soluble
MAHHHHHHMEAKLSSALRTCDKCRTYADLCRTFEAKVSPIVEQALQSPLVKAPRDHTTPDECSPRVAELREALCTRLGADKATPAEDDVWFLIYRTVSNFVERQQRKRSRDQDGTSLSTLVTNCFVLLCTRTLPQLDHMKLRWGFLKKERAALESSDAYVHSNASERRKLQLNATSVLSVFSERAHKHSFTFVWMLCVEKAGEAALHVHLLHRVGSVVLPYLTNPLVLADYLTGCFSSGGIISILSLQGLFLLMLDHGLEYPNYYEQLYSLLTPDVFASRYRYELFRLLDLSMTSLRVPSYIAASVIKRVAQVSLMAPAPTLYFSLPFLRKVLQSHPNCLALIHRSSREAVIPDDMADQDTDTVTAQSAKAQAMRDTAALFDGRDPFDDRAKLLETHALSSTLWELTALERHFMPVVPLMVSAFSSTAEDKTPLRYEKSYGRLFTAEVTRAIDCHNLPTIAYEAPSEADPTDLLSL | soluble
METGAGIGLYPLHRCKTIYLVRHAQGIHNVDGEKNYKAYMSHDYFDAELTQLGWKQVDSLRKHVHSSGLHKKIELVISSPLMRTLQTAVGVFGGEGYTDMSDVLPLMVANAGNSSRAAISSLNCPPVITEESCREHLGVHPCDQRRSISDYQFLFPAVDFSLIESEEDKLWKADVRETIEELAARGKKFLNWLWTRKEKEIAIVTHSGFLFHTLNALQNECHPDVKKEICGHFANCELRSMVIVDRSMLGSDSSVTDYPGKIPKGIDLPSDAVVDDNNIKVE | soluble
MGSDKIHHHHHHVAIALDFGTSNTVVARWNTETQSPELLSLTNLSQRGSQTPPLIPSLLYVEEATMPRLLAGQAVRDQGRDRPQDSRFFRSFKRGIGAEVTGFLPDLDGVCPDFEQVGQWFLDTVIAALEPGDRDGADLVLTVPVDSFENYRLWLSRVAQQWPVDRVRLIDEPTAAALGYGVEQQSPILVFDFGGGTLDLALIELGQTTSKVRSPLGFILKWGDQSFGDNSGQRPQLARVLAKAGRNLGGNDLDDWLTDYFAKQLNTAPTRVLTRLAERIKIQLSTTPEASEVYFDDETLQSLQLQLDRSQFQQILHDRGFFEQLDELLESVLQQGRRQGINPDAIAAVLMVGGSAQIPAVQDWLAGYFPTEKIRCDRPFEAVACGALQLAQGLEVRDFLYHSYGIRYWNHRSQRHDWHPLIPPGQAYPMAEPVELVLGASVAQQPSMELVLGELSQDRGATEIFFDGDRLITRRIGPDRTAAKALNDSETARTIARLDPPGDPGVDRLRLQFWVDRDRFLRVTIEDLLTLETVVENQVVIQL | not soluble
MGSDKIHHHHHHMSLNQPPHTRLRHDNPRSPNTFPSRAKVVGAEDLATTSNASTGHGFNLARPVHRNREPATPAPRVVEGANRRRSACEQDISHRHEKIYNWAPAPNTRQGQPTRRLTSRSGPKEREHAARTPRTALQCQRVLALGRVRTCASCGRGSEVLLRGLCPECFDRRYGVVEGLPWELVVDVCTSCGRVRIGHKWLEYATAEEAVGLMLSSMSLKPVHPVERVELEDWALETRLDWRTRVRLRFRANYRDTLFRVSRVIVLRLNPSTCPLCIVRRSGEYDTLVQVRGYRAGEAVEKTLNSLDPREAPIDVVPVRGGVDVYFHHRGAAARFVSRLASTARVRVSRVEHEHVGTSSLGRRRSRKTILVRLEGLTGERGE | not soluble
MSLSMSTIAKVAARAGVSPTTVSHVINHSDRVSKPLRERVEAAIKDLGYKPNPQAQSLRTGRTNIVAMLIPDIRNPFYPELVKAAQSELEVAGLDMLIFNTDVPGGQSQDHGREYLRQIGNKRVDGLIVGDFALHGMHDALMRVETPTVFIGNLPNHAVDCVRIDDFGGGYQMGAYLAGKGHRRIAHVTGPSFFAEAMSRADGFEQGLADHGATPDPGLRFEGSYLAPSGKAAAEWLLAGHGGDLPSAVFFGNYLMAAGALAEFYDRGIRIPDDFKVAVFGDQPQLEYVRPRLTRVGNAPAELARRATRMLLERINGTYEGEPRSEVVSCVLREFETEGHHHHHH | soluble
MDALKLLTNRRSSKKLKHPAPDAAELEQIFQAATQVPDHGNMRPFRFTVIQGEVGLQRFRDVLKQTVAELNFGDDAMKKAEKVGNMAPMVIGVTFAPNRDVPKPKPEWEQMLTAGCAAYALQLAATAQGFDNVWITGMWVNSPLLREAFGCADKDKIIGLMMVGTPTEEVHKPKNTDLEAFVSHW | not soluble
MAHHHHHHMATVYTSVPGKDFAKGVTLDEANRIVRVDAGLPLLSALQVGMIVRSIGGVPVGDGRCEQARHHSNRSQVLVVLGAPPKDEFDLCSDDDDAANLKPPSTLPPLPPEFNNSVAQNSSGVVYEATVKCGEGGCVIIMCEGANPALAITLAAEKAKAEVMYIDTVARMKTRQTLENAGEVLKKSLEKGLWIYVEQATKSITLLRQISDCIMEVRAAGKMHAQSRVLLMCEPHPHFPEALMRGSVTLRSRLQNNNMAEVDIREDLSESAHRKQAIHGDDVASSETAAKPEVTKTRKKVRISNQVNIVHLEKSTFMEMSASAQPPLESGTSHDGISRVAKYSFGSNENLISLSYVRDHRFAIGTNSGYVVLIDRNGLPLIQFRPHKACIWDVSFSSQFDFSTACEDGTSVIYKYSLANQELTTVSVASFQNDVFAVTYANPNDVNSGVLSGGLSATVCVLHSDRQNSSFIACRTSIQAMCATQMNQVIVGGGTGACTLIDTNHCVVTDITHAHNKKVPAVGTHGNVAVTGGFDCVLRLWDVRNGFHLTSQRQLNEVITAVAMNERYISACSGSSLYVWDPRKMDRTLAVKANAWKDLTRGLVLDGSTIVTASVDGVARIWEVS | not soluble
MHIKPIIQGVVARSAHPYGCEQAVLQQIQYVKQANPIKSGPKRVLILGASSGFGLAARIALTFGGAQADTIGVSFERAPSETQTGSAGYYNNLFFKQHAEQAGRIAVNLEGDVFSVDMREQVIEAIETYFEGEVDLIIYSIASGMRRKPRSEKADPEFWRSAIKPIGEAVSGATLLLENDTWIETTLQPASEEEIEGTLRVMGGDDWENWIDTLINAESLAEGCKTIAFSYMGPDVTHPIYLDGTLGRAKIDLHQTSHALNLKLANFDGGAYAVVCKALVTKASVFIPGLSPYLLALYQVMKNKGTHEGCIEQMQRLFSDKLYGHSRIPLDSERLIRMDDWEMNPDTQVQVRERLQQMNASNFQQLGDYAGFKREFMQLNGFEFDQIDYSQSV | not soluble
GMTDWQQALDRHVGVGVRTTRDLIRLIQPEDWDKRPISGKRSVYEVAVHLAVLLEADLRIATGATADEMAQFYAVPVLPEQLVDRLDQSWQYYQDRLMADFSTETTYWGVTDSTTGWLLEAAVHLYHHRSQLLDYLNLLGYDIKLDLFE | soluble
MSLKKKTTLSEEDQALFRQLMAGTRKIKQDTIVHRPQRKKISEVPVKRLIQEQADASHYFSDEFQPLLNTEGPVKYVRPDVSHFEAKKLRRGDYSPELFLDLHGLTQLQAKQELGALIAACRREHVFCACVMHGHGKHILKQQTPLWLAQHPHVMAFHQAPKEYGGDAALLVLIEVEEWLPPEGHHHHHH | soluble
